In patent publication US20260070976A1 (Alector, published 2026):
Changes are numbered by the printed parent chain.

B1: X0 (PA-29) (antibody, V domains shown)
VH: QVQLVQSGAEVKKPGSSVKVSCKASGYNFLNYDVNWVRQAPGQGLEWMGGIIPIFGTANYAQKFQGRVTITADESTSTAYMELSSLRSEDTAVYYCATGVGAGWFDPWGQGTLVTVSS
VL: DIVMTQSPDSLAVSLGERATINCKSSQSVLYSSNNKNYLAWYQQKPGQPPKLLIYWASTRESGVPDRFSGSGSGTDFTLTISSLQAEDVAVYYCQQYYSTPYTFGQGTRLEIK
notes: conditioned media in the HEK293F assays; also called parental X0 (PA-29) antibody; XO (PA-29)
B2: X12 (antibody, human IgG4, V domains shown)
VH: B1 VH with N31H, G99A, P107T
VL: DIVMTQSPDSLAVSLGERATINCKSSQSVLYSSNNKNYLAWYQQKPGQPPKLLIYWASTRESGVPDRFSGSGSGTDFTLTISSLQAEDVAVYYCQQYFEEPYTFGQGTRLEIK
notes: conditioned media in the HEK293F assays
B3: X1 (antibody, V domains shown)
VH: B1 VH with N31H, G99A, P107T
VL: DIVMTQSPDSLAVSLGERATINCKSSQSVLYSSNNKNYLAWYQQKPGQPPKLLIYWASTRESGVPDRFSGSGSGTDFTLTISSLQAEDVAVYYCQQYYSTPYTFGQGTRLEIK
notes: as for B2
B4: X2 (antibody, V domains shown)
VH: B1 VH with N31H, G99A
VL: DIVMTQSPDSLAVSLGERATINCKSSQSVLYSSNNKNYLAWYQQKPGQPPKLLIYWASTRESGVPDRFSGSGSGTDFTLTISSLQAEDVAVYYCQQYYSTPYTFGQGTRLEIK
notes: as for B2
B5: X11 (antibody, human IgG4, V domains shown)
VH: B1 VH
VL: DIVMTQSPDSLAVSLGERATINCKSSQSVYFSENNKNYLAWYQQKPGQPPKLLIYWASTRESGVPDRFSGSGSGTDFTLTISSLQAEDVAVYYCQQYYEEPYTFGQGTRLEIK
notes: as for B2
B6: X14 (antibody, human IgG4, V domains shown)
VH: B1 VH with N31H, G99A, P107T
VL: B5 VL with E33P, Y98F
notes: as for B2
B7: X18 (antibody, human IgG4, V domains shown)
VH: B1 VH with N31H, G99A, P107T
VL: B5 VL with Y30W, S32D, E33P, Y98F
notes: as for B2
B8: X7 (antibody, human IgG4, V domains shown)
VH: B1 VH
VL: B5 VL with Y30F, S32D, Y98F
notes: as for B2

Tests used:
recombinant human PILRA [1] = target: T1, recombinant human PILRA (human, UniProt Q9UKJ1 20-197); assay: SPR, Biacore T200, antibody captured by anti-Fab
Method: (§1) A subset of these antibodies was further evaluated using the Biacore T200 (Cytiva). Anti-PILRA antibodies were diluted to 10 μg/mL and captured using an anti-Fab (Cytiva, #28958325) surface on a CM4 chip, that was prepared by amine coupling according to the manufacturer's protocol. Human PILRA and cynomolgus PILRB were diluted in running buffer to 130 nM, and diluted 4-fold serially, twice, to 8 nM. Human PILRB was similarly diluted from 260 nM to 16 nM. These analytes were injected and allowed 2 minutes of association, followed by dissociation for 5 minutes.
(§2) Data were analyzed using Biacore evaluation software to generate kinetic constants. The equilibrium dissociation constants (KD) were calculated from the fitted association and dissociation rate constants (k-on and k-off) for each of the anti-PILRA antibodies. These Kn values are indicated with asterisks in Table 8 below.

[2] = target: T2, human PILRA G78 on HEK293F cells (human, UniProt Q9UKJ1 20-303); assay: FACS on HEK293F cells, binding on human PILRA (hA) over human PILRB (hB)
T2 construct: also called hA; G78 OE
Method: (§3) Conditioned media samples containing the tested anti-PILRA antibodies were assessed for binding to HEK293F cells overexpressing human PILRA (hA), human PILRB (hB), and cynomolgus PILRA (cA) by FACS. The conditioned media containing the tested antibodies were incubated with the cells for 30 min at 4° C., washed twice, and then detected with goat anti-human IgG secondary antibody (Alexa Fluor 647) at 1:1000 dilution. The cells were analyzed by flow cytometry on FACS Canto II, and for all cell lines, the reported MFI values were calculated for each conditioned media. These antibodies were evaluated for nonspecific binding using a baculovirus particle (BVP) assay (Jain T., Sun T., Durand S., Hall A., Houston N. R., Nett J. H., Sharkey B., Bobrowicz B., Caffry L, Yu Y., et al. Biophysical properties of the clinical-stage antibody landscape. Proc. Natl. Acad. Sci. USA. 2017; 114:944-949. Doi: 10.1073/pnas.1616408114.). The BVP scores are listed in Table 9, and the higher the score the more nonspecific binding that occurred.

[3] = target: T3, cell surface PILRA on human monocytes (human, UniProt Q9UKJ1 20-303); assay: cell-based or functional assay
[4] = target: T2, human PILRA G78 on HEK293F cells; assay: hA Kd of Table 9; method not stated (Example 8: HEK293F overexpressing cells, FACS)
recombinant human PILRB [5] = target: T4, recombinant human PILRB (human, UniProt Q9UKJ0 20-191); assay: SPR, Carterra LSA, steady-state fit
Method: (§4) Binding kinetics of human anti-PILRA-IgG4 antibodies were evaluated by surface plasmon resonance (SPR) using a Carterra LSA instrument (Carterra, Salt Lake City, UT). Antibodies were immobilized in duplicate arrays onto an HC30M sensor chip (Carterra) by amine coupling according to the manufacturer's protocol. After priming the immobilized antibodies with HBS-EP+ (Teknova, Hollister, CA, #8022) running buffer with 0.5 mg/mL BSA (MP Biomedicals LLC, #820451), the immobilized antibodies were tested for their ability to bind to recombinant human PILRA (SEQ ID NO:1) and cynomolgus PILRA (SEQ ID NO:120) and to human PILRB (SEQ ID NO:105) and cynomolgus PILRB (SEQ ID NO:121).
(§5) For binding kinetics analysis, human and cynomolgus PILRA and PILRB analytes were diluted in running buffer to 440 to 470 nM, and diluted 3-fold serially five times, to 1.8 to 1.9 nM, and injected for five minutes over the entire chip using the single channel flow cell to measure association of binding to the immobilized antibodies. Dissociation of the analytes was measured for five minutes, followed by regeneration of the chip with two 30-second injections of 10 mM glycine pH 2.0.
For the human PILRB interactions, the binding was too weak and heterogenous for kinetic constants to be calculated in this assay. Therefore, steady-state affinities were estimated based on the binding level of each analyte concentration at the end of the injections.

[6] = target: T2, human PILRA G78 on HEK293F cells; assay: flow cytometry; HEK293F cells overexpressing human PILRA, goat anti-human IgG Alexa Fluor 647
Method: as §3

[7] = target: T5, cynomolgus PILRA on HEK293F cells (cynomolgus monkey, UniProt A0A7N9CRU1 20-292); assay: cA Kd of Table 9; method not stated (Example 8: HEK293F overexpressing cells, FACS)
[8] = target: T6, recombinant cynomolgus PILRA (SEQ ID NO:120) (cynomolgus monkey); assay: SPR, Carterra LSA, antibody amine-coupled, kinetic fit
T6 construct: also called cyno PILRA
Method: as §4, §5

recombinant human PILRA [9] = target: T1, recombinant human PILRA; assay: as above
Method: as §4, §5

recombinant human PILRB [10] = target: T4, recombinant human PILRB; assay: SPR, Biacore T200, antibody captured by anti-Fab
Method: as §1, §2

[11] = target: T7, human PILRB on HEK293F cells (human, UniProt Q9UKJ0 20-227); assay: hB Kd of Table 9; method not stated (Example 8: HEK293F overexpressing cells, FACS)
T7 construct: also called hB

[12] = target: T3, cell surface PILRA on human monocytes; assay: flow cytometry; Alexa Fluor 647-conjugated antibody on human CD14+ monocytes, Fc receptors blocked, 30 min on ice
Method: (§6) Anti-human PILRA antibodies X0 (PA-29) and its affinity matured variants were tested for their abilities to bind cell surface PILRA on human and cynomolgus monocytes. CD14+ monocytes were isolated from healthy human donors using a RosetteSep Human Monocyte Enrichment Cocktail kit (StemCell). Cynomolgus white blood cells were collected from cynomolgus whole blood. In both human and cynomolgus samples, the Fc receptor on the tested monocytes was blocked and the monocytes were treated with Alexa Fluor 647-conjugated PILRA antibodies for 30 minutes on ice. A dose response curve of antibodies X0 (PA-29), X1, X2, X7, X11, X12, X13, X14, X16, X18, and X20 was tested for binding to cell surface PILRA in human and cynomolgus monocytes, and antibodies bound to PILRA in a dose response manner. In another sample of human donor monocytes, a dose response curve of antibodies X0 (PA-29), X1, X2, X11, X13, X18, X29 (PA-43), and X34 (A6) was tested for binding to cell surface PILRA in human and cynomolgus monocytes, and antibodies bound to PILRA in a dose response manner.

[13] = target: T2, human PILRA G78 on HEK293F cells; assay: flow cytometry blocking assay; antibody on HEK293F cells overexpressing human PILRA G78, then 5 ug/mL NPDC1 Fc as the blocked ligand; cell-bound NPDC1 Fc read as MFI
Method: A dose response curve of antibodies X0 (PA-29), X1, X2, X7, X11, X12, X13, X14, X16, X18, and X20 was assessed for modulating the binding of Neural Proliferation Differentiation and Control Protein 1 (NPDC1) Fc to 293 cells ectopically expressing human PILRA (HEK293F human PILRA G78 overexpressing cells). Conditioned media samples containing antibodies were incubated with human PILRA overexpressing cells for 30 minutes at 4° C., and then 5 μg/mL NPDC1 Fc was added to this mixture. After 30 minutes of incubation at 4° C., the cells were washed and cell-bound NPDC1 Fc was detected with anti-human IgG Alexa Fluor 647. The cells were analyzed by flow cytometry on FACS Canto II with the percentage of NPDC1 Fc binding in the presence of conditioned media relative to NPDC1 Fc binding alone was calculated. […] All tested antibodies decreased binding of NPDC1 to human PILRA.

[14] = target: T3, cell surface PILRA on human monocytes; assay: flow cytometry; Alexa Fluor 647-conjugated antibody on human CD14+ monocytes (second donor sample), Fc receptors blocked, 30 min on ice
Method: as §6

[15] = target: T5, cynomolgus PILRA on HEK293F cells; assay: flow cytometry; HEK293F cells overexpressing cynomolgus PILRA, goat anti-human IgG Alexa Fluor 647

T4 sequence (Q9UKJ0 20-191 limits assumed): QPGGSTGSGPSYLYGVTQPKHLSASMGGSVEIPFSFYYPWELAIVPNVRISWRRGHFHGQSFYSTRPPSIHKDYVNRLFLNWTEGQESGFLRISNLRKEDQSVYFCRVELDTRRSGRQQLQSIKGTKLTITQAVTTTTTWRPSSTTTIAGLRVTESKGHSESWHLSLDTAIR
T7 sequence (Q9UKJ0 20-227): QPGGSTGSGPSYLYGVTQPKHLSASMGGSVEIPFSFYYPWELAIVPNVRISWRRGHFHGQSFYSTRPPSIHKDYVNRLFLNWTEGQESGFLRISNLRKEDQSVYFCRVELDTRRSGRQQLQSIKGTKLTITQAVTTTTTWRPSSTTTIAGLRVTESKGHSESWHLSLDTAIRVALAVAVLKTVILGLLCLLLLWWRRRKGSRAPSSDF
T5 sequence (A0A7N9CRU1 entry or part of it): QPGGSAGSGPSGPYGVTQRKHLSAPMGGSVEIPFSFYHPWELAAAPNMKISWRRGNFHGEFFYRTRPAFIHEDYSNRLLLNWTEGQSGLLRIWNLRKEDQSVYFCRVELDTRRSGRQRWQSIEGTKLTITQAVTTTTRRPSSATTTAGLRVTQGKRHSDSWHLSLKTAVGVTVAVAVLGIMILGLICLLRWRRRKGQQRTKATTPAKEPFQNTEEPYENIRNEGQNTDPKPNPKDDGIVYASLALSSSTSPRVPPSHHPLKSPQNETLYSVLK
T2 sequence (Q9UKJ1 20-303 R78G): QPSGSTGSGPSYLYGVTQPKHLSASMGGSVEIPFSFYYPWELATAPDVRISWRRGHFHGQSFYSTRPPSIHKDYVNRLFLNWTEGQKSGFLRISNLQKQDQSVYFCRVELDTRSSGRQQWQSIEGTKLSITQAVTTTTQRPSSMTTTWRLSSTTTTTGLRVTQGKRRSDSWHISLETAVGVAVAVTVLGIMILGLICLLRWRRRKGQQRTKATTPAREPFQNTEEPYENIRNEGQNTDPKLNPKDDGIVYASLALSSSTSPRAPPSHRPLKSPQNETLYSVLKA
T1 sequence (Q9UKJ1 20-197 limits assumed): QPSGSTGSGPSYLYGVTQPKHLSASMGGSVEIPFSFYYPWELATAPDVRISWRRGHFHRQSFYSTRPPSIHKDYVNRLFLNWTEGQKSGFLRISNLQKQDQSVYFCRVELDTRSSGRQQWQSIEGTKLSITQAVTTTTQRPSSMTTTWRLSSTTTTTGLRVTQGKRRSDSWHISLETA
T3 sequence (Q9UKJ1 20-303): as the sequence (Q9UKJ1 20-303 R78G) above, with G59R counted along it
T6 sequence (chain, as listed by the source limits assumed): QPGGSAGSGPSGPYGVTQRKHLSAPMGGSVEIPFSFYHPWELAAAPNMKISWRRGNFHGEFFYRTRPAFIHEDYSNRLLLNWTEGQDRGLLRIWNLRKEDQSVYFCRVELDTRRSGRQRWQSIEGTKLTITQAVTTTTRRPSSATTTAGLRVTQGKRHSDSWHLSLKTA

| Binder | Kd (recombinant human PILRA [1]) [nM] | hA/hB binding ratio on HEK293F [2] | Hu Mono DR EC50 [3] [µg/mL] | Kd [4] [nM] | binding result (recombinant human PILRB [5]) | EC50 (read off the curve) [6] [µg/mL] | Kd [7] [nM] | Kd [8] [nM] | Kd (recombinant human PILRA [9]) [nM] | Kd (recombinant human PILRB [10]) [nM] | Kd (recombinant human PILRB [5]) [nM] | Kd [11] [nM] | EC50 (read off the curve) [12] [µg/mL] | IC50 (read off the curve) [13] [µg/mL] | EC50 (read off the curve) [14] [µg/mL] | EC50 (read off the curve) [15] [µg/mL] |
| --- | --- | --- | --- | --- | --- | --- | --- | --- | --- | --- | --- | --- | --- | --- | --- | --- |
| B1 | 294 | 108 | 0.7 | 78.7 | no binding | ~0.3 | 192 | 17 | 233 |  |  |  |  |  |  |  |
| B2 | 0.3 | 14.4 | ~0.02 | 0.1 |  |  | 0.3 | 0.2 | 1 | 28 | 12 | 36.7 | ~0.1 | ~0.08 |  |  |
| B3 | 1.6 | 56.7 | 0.02 | 0.4 |  | ~0.3 | 5.3 | 1.6 | 2.5 | 128 | 39 | 126 | ~0.2 | ~0.07 | ~0.1 |  |
| B4 | 3.1 | 71.1 | 0.1 | 0.8 |  |  | 8.9 | 1.5 | 3.5 | 157 | 53 | 216 |  |  | ~0.1 | ~0.6 |
| B5 | 3.4 | 79.8 | 0.3 | 1.6 |  | ~0.3 | 2.3 | 0.3 | 4.8 | 142 | 80 |  | ~0.2 |  | ~0.1 | ~0.5 |
| B6 |  | 7.9 | ~0.02 | 0.1 |  |  | 0.3 | 0.1 | 1.1 |  | 4 | 6.6 | ~0.1 | ~0.02 |  |  |
| B7 |  | 6.5 | ~0.02 | 0.1 |  | ~0.5 | 0.2 | 0.2 | 1.3 |  | 4 | 3.4 |  |  | ~0.1 |  |
| B8 |  | 63 | 0.9 | 1.2 |  |  | 2 | 0.4 | 3.8 |  | 77 |  | ~0.2 | ~0.08 |  |  |
